Experimental findings from IntAct's records for PubMed 26226295 are described below.

The labels stand for the following.
B1: EH domain-containing protein 3 (Homo sapiens), Q9NZN3 (parent)
chain: MFSWLGTDDRRRKDPEVFQTVSEGLKKLYKSKLLPLEEHYRFHEFHSPALEDADFDNKPMVLLVGQYSTGKTTFIRYLLEQDFPGMRIGPEPTTDSFIAVMQGDMEGIIPGNALVVDPKKPFRKLNAFGNAFLNRFVCAQLPNPVLESISVIDTPGILSGEKQRISRGYDFAAVLEWFAERVDRIILLFDAHKLDISDEFSEVIKALKNHEDKMRVVLNKADQIETQQLMRVYGALMWSLGKIVNTPEVIRVYIGSFWSHPLLIPDNRKLFEAEEQDLFRDIQSLPRNAALRKLNDLIKRARLAKVHAYIISSLKKEMPSVFGKDNKKKELVNNLAEIYGRIEREHQISPGDFPNLKRMQDQLQAQDFSKFQPLKSKLLEVVDDMLAHDIAQLMVLVRQEESQRPIQMVKGGAFEGTLHGPFGHGYGEGAGEGIDDAEWVVARDKPMYDEIFYTLSPVDGKITGANAKKEMVRSKLPNSVLGKIWKLADIDKDGMLDDDEFALANHLIKVKLEGHELPNELPAHLLPPSKRKVAE
partner: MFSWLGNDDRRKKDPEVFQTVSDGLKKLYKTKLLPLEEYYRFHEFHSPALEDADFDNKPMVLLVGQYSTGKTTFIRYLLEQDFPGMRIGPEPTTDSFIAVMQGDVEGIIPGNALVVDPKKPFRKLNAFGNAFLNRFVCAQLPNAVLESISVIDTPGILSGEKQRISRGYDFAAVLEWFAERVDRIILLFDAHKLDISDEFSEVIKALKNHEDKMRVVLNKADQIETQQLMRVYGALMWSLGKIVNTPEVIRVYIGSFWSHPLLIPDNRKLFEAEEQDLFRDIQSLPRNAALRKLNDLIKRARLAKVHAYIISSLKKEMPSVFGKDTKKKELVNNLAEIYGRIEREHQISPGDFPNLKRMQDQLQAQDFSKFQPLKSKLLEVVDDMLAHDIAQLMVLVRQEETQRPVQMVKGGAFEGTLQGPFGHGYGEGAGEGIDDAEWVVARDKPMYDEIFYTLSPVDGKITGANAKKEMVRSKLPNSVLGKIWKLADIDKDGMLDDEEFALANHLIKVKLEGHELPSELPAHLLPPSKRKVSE
B2: EH domain-containing protein 3 (Mus musculus), Q9QXY6 (parent)
chain: B1 partner
partner: B1 chain
B3: EH domain-containing protein 3 (Homo sapiens), Q9NZN3 (parent)
chain: B1 chain
partner: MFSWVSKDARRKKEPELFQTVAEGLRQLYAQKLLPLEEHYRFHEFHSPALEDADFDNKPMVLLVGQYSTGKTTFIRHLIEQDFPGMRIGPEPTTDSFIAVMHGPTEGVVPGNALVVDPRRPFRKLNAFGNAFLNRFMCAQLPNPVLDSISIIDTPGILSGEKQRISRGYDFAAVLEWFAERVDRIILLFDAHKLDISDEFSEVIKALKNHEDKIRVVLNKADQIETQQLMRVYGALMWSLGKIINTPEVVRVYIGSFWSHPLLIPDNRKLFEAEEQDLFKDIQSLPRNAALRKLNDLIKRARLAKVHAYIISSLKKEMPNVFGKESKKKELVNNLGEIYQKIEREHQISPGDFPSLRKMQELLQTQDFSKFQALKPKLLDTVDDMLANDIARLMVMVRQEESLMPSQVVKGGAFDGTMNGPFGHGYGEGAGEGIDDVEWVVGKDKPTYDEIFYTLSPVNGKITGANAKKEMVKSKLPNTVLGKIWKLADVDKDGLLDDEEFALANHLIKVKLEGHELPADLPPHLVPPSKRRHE

The variants in the first experiment derive from B1. Conditions: with ehd3_mouse Ehd3, Q9QXY6.
For the variant K315R;K511R, the “effect of a mutation on the interaction” value was “with no effect”.

In another experiment the parent is B1. Conditions: with ehd3_mouse Ehd3, Q9QXY6. The source holds these as a separate data set.
On to K511R, for which the “effect of a mutation on the interaction” value is given as “with no effect”.

Another experiment covers variants of B1. The note with it: with ehd3_mouse Ehd3, Q9QXY6. This is another data set of the same source.
For the variant K315R, the “effect of a mutation on the interaction” value is listed as “with no effect”.

Variants of B2 are the subject of a further experiment. The note with it: with ehd3_human EHD3, Q9NZN3.
As to K511R, the “effect of a mutation on the interaction” value is “decreasing interaction”.

As for K315R;K511R, the “effect of a mutation on the interaction” value is listed as “decreasing interaction”.

The variants in a further experiment derive from B2. Conditions: with ehd3_human EHD3, Q9NZN3. The source holds these as a separate data set.
In the case of K315R;K511R, the “effect of a mutation on the interaction” value is recorded as “with no effect”.

Variants of B3 are the subject of a further experiment. The note with it: with ehd1_human EHD1, Q9H4M9.
For K511R, the “effect of a mutation on the interaction” value was “with no effect”.

With K315R;K511R, the “effect of a mutation on the interaction” value is “with no effect”.

In the case of K315R, the “effect of a mutation on the interaction” value is on record as “with no effect”.

Variants of B3 are the subject of another experiment. The note with it: with ehd1_human EHD1, Q9H4M9. The source holds these as a separate data set.
For K511R, the “effect of a mutation on the interaction” value is reported as “decreasing interaction”.

Regarding K315R;K511R, the “effect of a mutation on the interaction” value is “disrupting interaction”.
